Changes are numbered by the printed parent chain.
B1: cLuc-linker-FLAG-Mdm4-111 (other)
chain: MSGYVNNPEATNALIDKDGWLHSGDIAYWDEDEHFFIVDRLKSLIKYKGYQVAPAELESILLQHPNIFDAGVAGLPDDDAGELPAAVVVLEHGKTMTEKEIVDYVASQVTTAKKLRGGVVFVDEVPKGLTGKLDARKIREILIKAKKGGKIAVGGGSGGGQISYASRGDYKDDDDKSGTSFSTSAQCSTSDSACRISPGQINQVRPKLPLLKILHAAGAQGEMFTVKEVMHYLGQYIMVKQLYDQQEQHMVYCGGDLLGELLGRQSFSVKDPSPLYDMLRKNLVTLAT
notes: range 2-111; Expressed from pLi354 with nLuc-p53; also called cLuc-Mdm4
B2: nLuc-linker-HA-Mdm4_RING (other)
chain: MEDAKNIKKGPAPFYPLEDGTAGEQLHKAMKRYALVPGTIAFTDAHIEVDITYAEYFEMSVRLAEAMKRYGLNTNHRIVVCSENSLQFFMPVLGALFIGVAVAPANDIYNERELLNSMGISQPTVVFVSKKGLQKILNVQKKLPIIQKIIIMDSKTDYQGFQSMYTFVTSHLPPGFNEYDFVPESFDRDKTIALIMNSSGSTGLPKGVALPHRTACVRFSHARDPIFGNQIIPDTAILSVVPFHHGFGMFTTLGYLICGFRVVLMYRFEEELFLRSLQDYKIQSALLVPTLFSFFAKSTLIDKYDLSNLHEIASGGAPLSKEVGEAVAKRFHLPGIRQGYGLTETTSAILITPEGDDKPGAVGKVVPFFEAKVVDLDTGKTLGVNQRGELCVRGPMIMSGYVNNPEATNALIDKDGGGGSGGGQISYASRGYPYDVPDYAGSMEDCQNLLKPCSLCEKRPRDGNIIHGRTGHLVTCFHCARRLKKAGASCPICKKEIQLVIKVFIA
notes: range 427-490; Expressed from pLi283 and pLi285; also called nLuc-Mdm4_RING; Mdm4 RING domain
B3: nLuc-linker-HA (other)
chain: MEDAKNIKKGPAPFYPLEDGTAGEQLHKAMKRYALVPGTIAFTDAHIEVDITYAEYFEMSVRLAEAMKRYGLNTNHRIVVCSENSLQFFMPVLGALFIGVAVAPANDIYNERELLNSMGISQPTVVFVSKKGLQKILNVQKKLPIIQKIIIMDSKTDYQGFQSMYTFVTSHLPPGFNEYDFVPESFDRDKTIALIMNSSGSTGLPKGVALPHRTACVRFSHARDPIFGNQIIPDTAILSVVPFHHGFGMFTTLGYLICGFRVVLMYRFEEELFLRSLQDYKIQSALLVPTLFSFFAKSTLIDKYDLSNLHEIASGGAPLSKEVGEAVAKRFHLPGIRQGYGLTETTSAILITPEGDDKPGAVGKVVPFFEAKVVDLDTGKTLGVNQRGELCVRGPMIMSGYVNNPEATNALIDKDG
notes: Expressed from pLi635, no fusion partner; also called nLuc-HA; nLuc alone; not shown: linker-HA
B4: cLuc-linker-HA-Mdm2_RING (other)
chain: MSGYVNNPEATNALIDKDGWLHSGDIAYWDEDEHFFIVDRLKSLIKYKGYQVAPAELESILLQHPNIFDAGVAGLPDDDAGELPAAVVVLEHGKTMTEKEIVDYVASQVTTAKKLRGGVVFVDEVPKGLTGKLDARKIREILIKAKKGGKIAVGGGSGGGQISYASRGYPYDVPDYAGSSSLPLNAIEPCVICQGRPKNGCIVHGKTGHLMACFTCAKKLKKRNKPCPVCRQPIQMIVLTYFP
notes: range 428-491; Expressed from pLi283; also called cLuc-Mdm2_RING; Mdm2 RING domain
B5: cLuc-linker-HA-Mdm2_RING-C464A (other)
chain: B4 chain with C216A
notes: range 428-491; Expressed from pLi285; also called Mdm2_C464A
B6: cLuc-linker-FLAG-FANCL_WT (other)
chain: MSGYVNNPEATNALIDKDGWLHSGDIAYWDEDEHFFIVDRLKSLIKYKGYQVAPAELESILLQHPNIFDAGVAGLPDDDAGELPAAVVVLEHGKTMTEKEIVDYVASQVTTAKKLRGGVVFVDEVPKGLTGKLDARKIREILIKAKKGGKIAVGGGSGGGQISYASRGDYKDDDDKSGAVTEASLLRQCPLLLPQNRSKTVYEGFISAQGRDFHLRIVLPEDLQLKNARLLCSWQLRTILSGYHRIVQQRMQHSPDLMSFMMELKMLLEVALKNRQELYALPPPPQFYSSLIEEIGTLGWDKLVYADTCFSTIKLKAEDASGREHLITLKLKAKYPAESPDYFVDFPVPFCASWTPQSSLISIYSQFLAAIESLKAFWDVMDEIDEKTWVLEPEKPPRSATARRIALGNNVSINIEVDPRHPTMLPECFFLGADHVVKPLGIKLSRNIHLWDPENSVLQNLKDVLEIDFPARAILEKSDFTMDCGICYAYQLDGTIPDQVCDNSQCGQPFHQICLYEWLRGLLTSRQSFNIIFGECPYCSKPITLKMSGRKH
notes: mature; Expressed from pLi505; also called cLuc-FANCL
B7: cLuc-linker-FLAG-FANCL_C307A (other)
chain: B6 chain with C484A
notes: mature; Expressed from pLi506

Columns and labels:
TAT-PMI = experiment: lysate BiLC (FIG. 13B); disruption of nLuc-p53 / cLuc-Mdm4
cLuc-linker-HA-Mdm2_RING = molecular target: B4; experiment: BiLC in cell lysate with PPI lysis buffer PLB; reference is the Mdm4_RING / Mdm2_RING_C464A pair
cLuc-linker-HA = molecular target: T1, cLuc-linker-HA (Photinus pyralis (Common eastern …, UniProt P08659 398-547 = luciferase)); experiment: quantitative ReBiL assay in U2OS cells (FIG. 17D)
T1 construct: Expressed from pLi635, no fusion partner; also called cLuc-HA; cLuc alone; not shown: linker-HA

nLuc-linker-HA-Mdm4_RING [1] = molecular target: B2; experiment: BiLC in U2OS cell lysates, three lysis buffers
nLuc-linker-HA-Mdm4_RING [2] = molecular target: B2; experiment: BiLC in cells and in cell lysate (FIGS. 16 and 12)
nLuc-linker-HA-Ube2t [3] = molecular target: T2, nLuc-linker-HA-Ube2t (UniProt Q9NPD8 1-197, limits assumed); experiment: ReBiL BiLC in living U2OS cells at 35° C
T2 construct: Expressed from pLi505 and pLi506; also called nLuc-Ube2t; nLuc-Linker1-HA-Ube2t; not shown: linker-HA

nLuc-linker-HA-Ube2t [4] = molecular target: T2, nLuc-linker-HA-Ube2t; experiment: ReBiL BiLC in living U2OS cells at 35° C (FIG. 23C)

T2 sequence (Q9NPD8 whole entry): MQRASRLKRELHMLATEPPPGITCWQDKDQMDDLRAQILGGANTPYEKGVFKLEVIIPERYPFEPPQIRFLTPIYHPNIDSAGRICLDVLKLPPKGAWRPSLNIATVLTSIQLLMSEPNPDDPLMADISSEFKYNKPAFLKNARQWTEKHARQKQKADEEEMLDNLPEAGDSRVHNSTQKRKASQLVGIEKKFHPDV

B1: binds (TAT-PMI).

For B2, the “BiLC signal (wild type) to noise (mutant) ratio” value (cLuc-linker-HA-Mdm2_RING) was > 1000 fold.

B3: no binding (cLuc-linker-HA).

B4: binds (nLuc-linker-HA-Mdm4_RING [1]).

B5: no binding (nLuc-linker-HA-Mdm4_RING [2]).

B6: binds (nLuc-linker-HA-Ube2t [3]).

B7: no binding (nLuc-linker-HA-Ube2t [4]).

Source: patent publication US20150010932A1 (SALK INSTITUTE FOR BIOLOGICAL STUDIES, published 2015)
